Source: US7056679 (ANTYRA, dated 2006)

Key:
Experiment in all cases: phage ELISA
[1] = biological target: T1, antibody raised against ETAG
T1 construct: Coated at 500 ng/well; also called E-tag antibody
Method: (§1) For analysis of individual target binders, colonies were picked and phage prepared as described above using helper phage, M13KO7. Ninety-six-well microtiter plates were coated with 500 ng/well of specific target protein, 500 ng/well lactate dehydrogenase (LDH) irrelevant or non-specific target, 500 ng/well of positive control antibody raised against ETAG, and negative control of non-fat milk powder-PBS 2% at 4° C. overnight. Plates were then blocked with 350 microliters/well PBS containing 2% non-fat milk for 1 hr at room temperature. One hundred microliters per well of phage from isolated clones were added and plates were incubated at room temperature for 2 hr after centrifuging samples for 20 minutes at 3500 rpm at 4° C. The phage solution was then removed, and the wells were washed three times with PBS at room temperature. Antibody raised against M13 conjugated to horseradish peroxidase (Pharmacia) was diluted 1:3000 in PBS-Tween and added to each well (100 µl/well). Incubation was for 1 hr at room temperature, followed by washing with PBS-(0.5%) Tween 3 times as described. Color was developed by addition of ABTS solution (100 µl/well; Boehringer, Indianapolis, Ind.). Plates were analyzed at 405 nm. A clone was considered "positive" if the $A405$ of the well was $\geq$2-fold over background.

DGI-2 polypeptide = biological target: T2, DGI-2 polypeptide (UniProt Q15004 1-111, limits assumed)
T2 construct: Soluble recombinant protein coated at 500 ng/well; vector tag of pIVEX2.3-MCS not described for this construct; also called KIAA0101
T2 sequence (looked up): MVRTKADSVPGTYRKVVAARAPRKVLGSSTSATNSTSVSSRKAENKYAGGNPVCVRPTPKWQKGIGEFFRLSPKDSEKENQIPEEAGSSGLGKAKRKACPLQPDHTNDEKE
Method: as §1

[2] = biological target: T3, lactate dehydrogenase (LDH)
T3 construct: Coated at 500 ng/well as non-specific target; also called LDH polypeptide
Method: as §1

Binder: WWREWVDGSLRGGGGTVLKDAAAGAPVPYPDPLEPRP [DGI-2-20R-3-A122]
- ETAG (OD) [1]: 15.1 OD
- DGI-2 (OD) (DGI-2 polypeptide): 9.6 OD
- DGI-2/LDH (DGI-2 polypeptide): 9.4 ratio
- LDH (OD) [2]: 1 OD

Binder: LSLEGGWMWDTKGGDGGSAQAAAGAPVPYPDPLEPRP [DGI-2-20R-4-F93]
- ETAG (OD) [1]: 19.5 OD
- DGI-2 (OD) (DGI-2 polypeptide): 9 OD
- DGI-2/LDH (DGI-2 polypeptide): 8.4 ratio
- LDH (OD) [2]: 1.1 OD

Binder: LWRRWSEGQLLGDGELRGDGAAAGAPVPYPDPLEPRP [DGI-2-20R-3-B52]
- ETAG (OD) [1]: 15.8 OD
- DGI-2 (OD) (DGI-2 polypeptide): 8.7 OD
- DGI-2/LDH (DGI-2 polypeptide): 8.4 ratio
- LDH (OD) [2]: 1 OD

Binder: GAIRLSGAAWTASRTGGRASAAAGAPVPYPDPLEPRP [DGI-2-20F-PP-E7]
- ETAG (OD) [1]: 21.5 OD
- DGI-2 (OD) (DGI-2 polypeptide): 1.6 OD
- DGI-2/LDH (DGI-2 polypeptide): 1.8 ratio
- LDH (OD) [2]: 0.9 OD

Binder: RSIRLQLIDEACQFFDGLCTAAAGAPVPYPDPLEPRP [DGI-2-20R-3-A8]
- ETAG (OD) [1]: 15.3 OD
- DGI-2 (OD) (DGI-2 polypeptide): 6.9 OD
- DGI-2/LDH (DGI-2 polypeptide): 6.4 ratio
- LDH (OD) [2]: 1.1 OD

Binder: RRGVCEIFTGWCVGQTNERPAAAGAPVPYPDPLEPRP [DGI-2-20R-4-H626]
- ETAG (OD) [1]: 13.5 OD
- DGI-2 (OD) (DGI-2 polypeptide): 9.6 OD
- DGI-2/LDH (DGI-2 polypeptide): 8.8 ratio
- LDH (OD) [2]: 1.1 OD

B1: DGI-2-40F-3-D1044 (peptide)
peptide: DRVARLATPTAGTMAAGSLGYERTVGCDSQDWFRCVVEGLAAAGAPVPYPDPLEPRP
- ETAG (OD) [1]: 17.7 OD
- DGI-2 (OD) (DGI-2 polypeptide): 7.9 OD
- DGI-2/LDH (DGI-2 polypeptide): 6.2 ratio
- LDH (OD) [2]: 1.3 OD

Binder: SRELGKWGRLWQDWSSGNFSAAAGAPVPYPDPLEPRP [DGI-2-20R-3-C11]
- ETAG (OD) [1]: 18.9 OD
- DGI-2 (OD) (DGI-2 polypeptide): 8.6 OD
- DGI-2/LDH (DGI-2 polypeptide): 8.3 ratio
- LDH (OD) [2]: 1 OD

Binder: DQRVVGSGWFERLRNWYDRAAAAGAPVPYPDPLEPRP [DGI-2-20R-4-G99]
- ETAG (OD) [1]: 14.1 OD
- DGI-2 (OD) (DGI-2 polypeptide): 7.5 OD
- DGI-2/LDH (DGI-2 polypeptide): 7.2 ratio
- LDH (OD) [2]: 1 OD

B2: DGI-2-40F-4-F97 (peptide)
peptide: QVGGMTQVGATVLSVVTGRGSCDGEDAWYPPGVTVGLGLCAAAGAPVPYPDPLEPRP
- ETAG (OD) [1]: 14 OD
- DGI-2 (OD) (DGI-2 polypeptide): 6.7 OD
- DGI-2/LDH (DGI-2 polypeptide): 6.4 ratio
- LDH (OD) [2]: 1 OD

Binder: CGGWGAMWEAWVQGLNGAGCAAAGAPVPYPDPLEPRP [DGI-2-20R-3-D4]
- ETAG (OD) [1]: 18.9 OD
- DGI-2 (OD) (DGI-2 polypeptide): 8.7 OD
- DGI-2/LDH (DGI-2 polypeptide): 8.1 ratio
- LDH (OD) [2]: 1.1 OD

Binder: RTLFINGGCCGKGSGGGRPLAAAGAPVPYPDPLEPRP [DGI-2-20F-PP-G1]
- ETAG (OD) [1]: 21.8 OD
- DGI-2 (OD) (DGI-2 polypeptide): 1.4 OD
- DGI-2/LDH (DGI-2 polypeptide): 1.4 ratio
- LDH (OD) [2]: 1 OD

Binder: TIDVARRFGYGWWDLWLDGDAAAGAPVPYPDPLEPRP [DGI-2-20R-3-C3]
- ETAG (OD) [1]: 20.2 OD
- DGI-2 (OD) (DGI-2 polypeptide): 7.9 OD
- DGI-2/LDH (DGI-2 polypeptide): 7 ratio
- LDH (OD) [2]: 1.1 OD

Binder: RKGWGVFCIPGLRFCDWSDPAAAGAPVPYPDPLEPRP [DGI-2-20R-3-B4]
- ETAG (OD) [1]: 17.4 OD
- DGI-2 (OD) (DGI-2 polypeptide): 8.4 OD
- DGI-2/LDH (DGI-2 polypeptide): 8.6 ratio
- LDH (OD) [2]: 1 OD

Binder: QMSRVAFSPGESWRRWVEGVAAAGAPVPYPDPLEPRP [DGI-2-20R-3-A2]
- ETAG (OD) [1]: 14.2 OD
- DGI-2 (OD) (DGI-2 polypeptide): 7.5 OD
- DGI-2/LDH (DGI-2 polypeptide): 7.5 ratio
- LDH (OD) [2]: 1 OD

Binder: VWAAWVEGSLLSPRQEPVRDAAAGAPVPYPDPLEPRP [DGI-2-20R-4-G4]
- ETAG (OD) [1]: 13.6 OD
- DGI-2 (OD) (DGI-2 polypeptide): 10.2 OD
- DGI-2/LDH (DGI-2 polypeptide): 9.8 ratio
- LDH (OD) [2]: 1 OD

Binder: EGNWFCAVFRGFCVGDRGPEAAAGAPVPYPDPLEPRP [DGI-2-20R-3-A1]
- ETAG (OD) [1]: 11.1 OD
- DGI-2 (OD) (DGI-2 polypeptide): 7.1 OD
- DGI-2/LDH (DGI-2 polypeptide): 6.3 ratio
- LDH (OD) [2]: 1.1 OD

Binder: DGRGWGAMWMRWAEGLGADIAAAGAPVPYPDPLEPRP [DGI-2-20R-4-G114]
- ETAG (OD) [1]: 16.5 OD
- DGI-2 (OD) (DGI-2 polypeptide): 12.9 OD
- DGI-2/LDH (DGI-2 polypeptide): 11 ratio
- LDH (OD) [2]: 1.2 OD

Binder: VWRDWVNGTVGLRNREKPGVAAAGAPVPYPDPLEPRP [DGI-2-20R-3-A5]
- ETAG (OD) [1]: 14.9 OD
- DGI-2 (OD) (DGI-2 polypeptide): 10.9 OD
- DGI-2/LDH (DGI-2 polypeptide): 9.8 ratio
- LDH (OD) [2]: 1.1 OD

Binder: QLDCLVWGLPGLRCDRPLEQAAAGAPVPYPDPLEPRP [DGI-2-20R-3-B10]
- ETAG (OD) [1]: 17 OD
- DGI-2 (OD) (DGI-2 polypeptide): 7.8 OD
- DGI-2/LDH (DGI-2 polypeptide): 7.6 ratio
- LDH (OD) [2]: 1 OD

Binder: FRMWVQSCFWGQPGTGCGEGAAAGAPVPYPDPLEPRP [DGI-2-20R-3-D2]
- ETAG (OD) [1]: 14.3 OD
- DGI-2 (OD) (DGI-2 polypeptide): 7.9 OD
- DGI-2/LDH (DGI-2 polypeptide): 7.5 ratio
- LDH (OD) [2]: 1.1 OD

Binder: GRWDGWEVCGIWGADDCASGAAAGAPVPYPDPLEPRP [DGI-2-20R-4-H1]
- ETAG (OD) [1]: 14 OD
- DGI-2 (OD) (DGI-2 polypeptide): 9.3 OD
- DGI-2/LDH (DGI-2 polypeptide): 7.8 ratio
- LDH (OD) [2]: 1.2 OD

Binder: GWSDFVATGSWSGQVSAALNAAAGAPVPYPDPLEPRP [DGI-2-20R-4-F120]
- ETAG (OD) [1]: 16.5 OD
- DGI-2 (OD) (DGI-2 polypeptide): 13.6 OD
- DGI-2/LDH (DGI-2 polypeptide): 12.2 ratio
- LDH (OD) [2]: 1.1 OD

Binder: RDTMCGSVSWGIPGCEYSGMAAAGAPVPYPDPLEPRP [DGI-2-20R-4-G122]
- ETAG (OD) [1]: 13.9 OD
- DGI-2 (OD) (DGI-2 polypeptide): 7.6 OD
- DGI-2/LDH (DGI-2 polypeptide): 7.1 ratio
- LDH (OD) [2]: 1.1 OD

Binder: VSFAHDWGRWWYQWEVGAAAGAPVPYPDPLEPRP [DGI-2-20R-4-G22]
- ETAG (OD) [1]: 12.9 OD
- DGI-2 (OD) (DGI-2 polypeptide): 7.9 OD
- DGI-2/LDH (DGI-2 polypeptide): 6.5 ratio
- LDH (OD) [2]: 1.2 OD

Binder: VLGADAGMIWFMDGCGIRCRAAAGAPVPYPDPLEPRP [DGI-2-20R-4-E6]
- ETAG (OD) [1]: 19.1 OD
- DGI-2 (OD) (DGI-2 polypeptide): 7 OD
- DGI-2/LDH (DGI-2 polypeptide): 7 ratio
- LDH (OD) [2]: 1 OD

Binder: RGVNSDMPRLYICRADGQGQAAAGAPVPYPDPLEPRP [DGI-2-20F-PP-H6]
- ETAG (OD) [1]: 18.9 OD
- DGI-2 (OD) (DGI-2 polypeptide): 1.6 OD
- DGI-2/LDH (DGI-2 polypeptide): 1.9 ratio
- LDH (OD) [2]: 0.8 OD

Binder: GHGAGDWAAELFVCPVAFLTGFAWRAAAGAPVPYPDPLEPRP [DGI-2-20R-4-H2]
- ETAG (OD) [1]: 12.9 OD
- DGI-2 (OD) (DGI-2 polypeptide): 9.9 OD
- DGI-2/LDH (DGI-2 polypeptide): 9.2 ratio
- LDH (OD) [2]: 1.1 OD

Binder: LFSATGCALMSGFCLGSDGSAAAGAPVPYPDPLEPRP [DGI-2-20R-3-C1]
- ETAG (OD) [1]: 14 OD
- DGI-2 (OD) (DGI-2 polypeptide): 8.2 OD
- DGI-2/LDH (DGI-2 polypeptide): 8.3 ratio
- LDH (OD) [2]: 1 OD
